PMC11219989

Tests used:
[1] = biological target: T1, unknown natural tumor antigen of the autologous tumor organoids of patient CRC1 peptide on (human); experiment: CD137 sort of CD8+ oeT cells after 24 h restimulation with autologous tumor organoids (cells that express the antigen), single-cell RT-PCR; 4.3% in TIL alone; ex vivo sorted cells; settings: chains alpha TRAV35*02 TRAJ10*01 CDR3:beta TRBV6-1*01 TRBJ1-2*01 CDR3
[2] = biological target: T1, unknown natural tumor antigen of the …; experiment: CD137 sort of CD8+ oeT cells after 24 h restimulation with autologous tumor organoids (cells that express the antigen), single-cell RT-PCR; 3.6% in TIL alone; ex vivo sorted cells; settings: chains alpha TRAV35*02 TRAJ10*01 CDR3:beta TRBV28*01 TRBJ2-2*01 CDR3
[3] = biological target: T1, unknown natural tumor antigen of the …; experiment: CD137 sort of CD8+ oeT cells after 24 h restimulation with autologous tumor organoids (cells that express the antigen), single-cell RT-PCR; 2.5% in TIL alone; ex vivo sorted cells; settings: chains alpha TRAV24*01 TRAJ12*01 CDR3:beta TRBV28*01 TRBJ1-2*01 CDR3
[4] = biological target: T1, unknown natural tumor antigen of the …; experiment: CD137 sort of CD8+ oeT cells after 24 h restimulation with autologous tumor organoids (cells that express the antigen), single-cell RT-PCR; 1.2% in TIL alone; ex vivo sorted cells; settings: chains alpha TRAV36/DV7*04 TRAJ30*01 CDR3:beta TRBV6-5*01 TRBJ2-2*01 CDR3
[5] = biological target: T2, unknown natural tumor antigen of the autologous tumor organoids of patient CRC2 peptide on (human); experiment: CD137 sort of CD8+ oeT cells after 24 h restimulation with autologous tumor organoids (cells that express the antigen), single-cell RT-PCR; 1.1% in TIL alone; ex vivo sorted cells
[6] = biological target: T2, unknown natural tumor antigen of the …; experiment: CD137 sort of CD8+ oeT cells after 24 h restimulation with autologous tumor organoids (cells that express the antigen), single-cell RT-PCR; 0.5% in TIL alone; ex vivo sorted cells
[7] = biological target: T2, unknown natural tumor antigen of the …; experiment: CD137 sort of CD8+ oeT cells after 24 h restimulation with autologous tumor organoids (cells that express the antigen), single-cell RT-PCR; 2.8% in TIL alone; ex vivo sorted cells; settings: chains alpha TRAV23/DV6*01 TRAJ45*01 CDR3:beta TRBV9*01 TRBJ2-1*01 CDR3
[8] = biological target: T3, unknown natural tumor antigen of the autologous tumor organoids of patient CRC3 peptide on (human); experiment: CD137 sort of CD8+ oeT cells after 24 h restimulation with autologous tumor organoids (cells that express the antigen), single-cell RT-PCR; 1.3% in TIL alone; ex vivo sorted cells; settings: chains alpha TRAV10*01 TRAJ16*02 CDR3:beta TRBV10-3*02 TRBJ2-1*01 CDR3
[9] = biological target: T3, unknown natural tumor antigen of the …; experiment: CD137 sort of CD8+ oeT cells after 24 h restimulation with autologous tumor organoids (cells that express the antigen), single-cell RT-PCR; 3% in TIL alone; ex vivo sorted cells; settings: chains alpha TRAV14/DV4*01 TRAJ45*01 CDR3:beta TRBV20-1*01 TRBJ2-1*01 CDR3
[10] = biological target: T3, unknown natural tumor antigen of the …; experiment: CD137 sort of CD8+ oeT cells after 24 h restimulation with autologous tumor organoids (cells that express the antigen), single-cell RT-PCR; 0% in TIL alone; ex vivo sorted cells; settings: chains alpha TRAV10*01 TRAJ4*01 CDR3:beta TRBV9*01 TRBJ1-2*01 CDR3
[11] = biological target: T3, unknown natural tumor antigen of the …; experiment: CD137 sort of CD8+ oeT cells after 24 h restimulation with autologous tumor organoids (cells that express the antigen), single-cell RT-PCR; 0.4% in TIL alone; ex vivo sorted cells; settings: chains alpha TRAV8-6*02 TRAJ20*01 CDR3:beta TRBV6-1*01 TRBJ1-3*01 CDR3
[12] = biological target: T4, unknown natural tumor antigen of the autologous tumor organoids of patient CRC4 peptide on (human); experiment: CD137 sort of CD8+ oeT cells after 24 h restimulation with autologous tumor organoids (cells that express the antigen), single-cell RT-PCR; 2.4% in TIL alone; ex vivo sorted cells; settings: chains alpha TRAV20*01 TRAJ4*01 CDR3:beta TRBV12-3*01 TRBJ1-5*01 CDR3
[13] = biological target: T4, unknown natural tumor antigen of the …; experiment: CD137 sort of CD8+ oeT cells after 24 h restimulation with autologous tumor organoids (cells that express the antigen), single-cell RT-PCR; 0% in TIL alone; ex vivo sorted cells

B1: TCR1 (peptide)
chain 1: AGVTGGGNKLT
chain 2: ASSEGTGFYGYT
For B1, which frequency among sorted CD8+CD137+ PDO(T)-oeT cells [1] is on record?
The frequency among sorted CD8+CD137+ PDO(T)-oeT cells was 25.6%.

B2: TCR2 (peptide)
chain 1: AGVTGGGNKLT
chain 2: ASSLTSASGELF
How did the frequency among sorted CD8+CD137+ PDO(T)-oeT cells [2] turn out when B2 was run?
Its frequency among sorted CD8+CD137+ PDO(T)-oeT cells is 17.8%.

B3: TCR3 (peptide)
chain 1: APWMDSSYKLI
chain 2: ASSIGGHDGYT
For B3, which frequency among sorted CD8+CD137+ PDO(T)-oeT cells [3] is on record?
Its frequency among sorted CD8+CD137+ PDO(T)-oeT cells is 6.7%.

B4: TCR5 (peptide)
chain 1: AVSRDDKII
chain 2: ASSYVGNTGELF
Which frequency among sorted CD8+CD137+ PDO(T)-oeT cells [4] does the source give for B4 here?
The frequency among sorted CD8+CD137+ PDO(T)-oeT cells was 5%.

B5: TCR6 (peptide)
chain 1: AVGDNFNKFY
chain 2: ASSYVGNTGELF
For B5, which frequency among sorted CD8+CD137+ PDO(T)-oeT cells ([5]; chains alpha TRAV8-3*01 TRAJ21*01 CDR3:beta TRBV28*01 TRBJ2-2*01 CDR3) is on record?
The frequency among sorted CD8+CD137+ PDO(T)-oeT cells was 13.4%.

B6: TCR7 (peptide)
chain 1: AMREGADSWGKFQ
chain 2: ASSLHGRGDEKLF
For B6, which frequency among sorted CD8+CD137+ PDO(T)-oeT cells ([6]; chains alpha TRAV14/DV4*03 TRAJ24*03 CDR3:beta TRBV28*01 TRBJ1-4*01 CDR3) is on record?
The frequency among sorted CD8+CD137+ PDO(T)-oeT cells was 12.4%.

B7: TCR8 (peptide)
chain 1: ALKAGGGASKLT
chain 2: ASSVGGGVDEQF
Which frequency among sorted CD8+CD137+ PDO(T)-oeT cells [7] does the source give for B7 here?
Its frequency among sorted CD8+CD137+ PDO(T)-oeT cells is 9.3%.

B8: TCR9 (peptide)
chain 1: AVRGTLSGGSYIPT
chain 2: ASSATSASGELF
Which frequency among sorted CD8+CD137+ PDO(T)-oeT cells ([5]; chains alpha TRAV1-2*01 TRAJ6*01 CDR3:beta TRBV28*01 TRBJ2-2*01 CDR3) does the source give for B8 here?
Its frequency among sorted CD8+CD137+ PDO(T)-oeT cells is 8.2%.

B9: TCR10 (peptide)
chain 1: AASPPGGSQGNLI
chain 2: ASSHRTSSRGEQF
How did the frequency among sorted CD8+CD137+ PDO(T)-oeT cells ([6]; chains alpha TRAV13-1*01 TRAJ42*01 CDR3:beta TRBV4-1*01 TRBJ2-1*01 CDR3) turn out when B9 was run?
Its frequency among sorted CD8+CD137+ PDO(T)-oeT cells is 3.1%.

B10: TCR12 (peptide)
chain 1: VSGFSDGQKLL
chain 2: ATTKTGERPDEQF
B10 was tested. Which frequency among sorted CD8+CD137+ PDO(T)-oeT cells [8] did it give?
The frequency among sorted CD8+CD137+ PDO(T)-oeT cells was 8%.

B11: TCR13 (peptide)
chain 1: ANDSGGGADGLT
chain 2: SARGLLGGRAREQF
How did the frequency among sorted CD8+CD137+ PDO(T)-oeT cells [9] turn out when B11 was run?
Its frequency among sorted CD8+CD137+ PDO(T)-oeT cells is 4%.

B12: TCR14 (peptide)
chain 1: VVSFSGGYNKLI
chain 2: ASSVGDRDYGYT
With B12 as the binder, how does the frequency among sorted CD8+CD137+ PDO(T)-oeT cells [10] read?
The frequency among sorted CD8+CD137+ PDO(T)-oeT cells was 4%.

B13: TCR15 (peptide)
chain 1: AVSGRSNDYKLS
chain 2: ASSEKRQGAGNTIY
With B13 as the binder, how does the frequency among sorted CD8+CD137+ PDO(T)-oeT cells [11] read?
The frequency among sorted CD8+CD137+ PDO(T)-oeT cells was 3%.

B14: TCR17 (peptide)
chain 1: AVFSGGYNKLI
chain 2: ASSLEFYSNQPQH
Which frequency among sorted CD8+CD137+ PDO(T)-oeT cells [12] does the source give for B14 here?
The frequency among sorted CD8+CD137+ PDO(T)-oeT cells was 13.5%.

B15: TCR18 (peptide)
chain 1: AVRDEGARLM
chain 2: ASSIFSGTGGADTQY
B15 was tested. Which frequency among sorted CD8+CD137+ PDO(T)-oeT cells ([13]; chains alpha TRAV3*01 TRAJ31*01 CDR3:beta TRBV9*01 TRBJ2-3*01 CDR3) did it give?
The frequency among sorted CD8+CD137+ PDO(T)-oeT cells was 10.3%.

B16: TCR19 (peptide)
chain 1: AVGRGYGQNFV
chain 2: ASSQDGGLNEKLF
How did the frequency among sorted CD8+CD137+ PDO(T)-oeT cells ([13]; chains alpha TRAV22*01 TRAJ26*01 CDR3:beta TRBV4-3*01 TRBJ1-4*01 CDR3) turn out when B16 was run?
Its frequency among sorted CD8+CD137+ PDO(T)-oeT cells is 7.7%.

B17: TCR20 (peptide)
chain 1: AENMGFQKLV
chain 2: AWTQGANGYT
B17 was tested. Which frequency among sorted CD8+CD137+ PDO(T)-oeT cells ([13]; chains alpha TRAV13-2*01 TRAJ8*01 CDR3:beta TRBV30*01 TRBJ1-2*01 CDR3) did it give?
The frequency among sorted CD8+CD137+ PDO(T)-oeT cells was 7.1%.
